# In patent US20080207488A1 (published 2008):
# Ends that are not written are not given here.
# B1: recombinant human β2-glycoprotein I (other, UniProt P02749 20-345, looked up)
# chain: GRTCPKPDDLPFSTVVPLKTFYEPGEEITYSCKPGYVSRGGMRKFICPLTGLWPINTLKCTPRVCPFAGILENGAVRYTTFEYPNTISFSCNTGFYLNGADSAKCTEEGKWSPELPVCAPIICPPPSIPTFATLRVYKPSAGNNSLYRDTAVFECLPQHAMFGNDTITCTTHGNWTKLPECREVKCPFPSRPDNGFVNYPAKPTLYYKDKATFGCHDGYSLDGPEEIECTKLGNWSAMPSCKASCKVPVKKATVVYQGERVKIQEKFKNGMLHGDKVSFFCKNKEKKCSYTEDAQCIDGTIEVPKCFKEHSSLAFWKTDASDVKPC
# notes: also called recombinant β2GPI; rec. β2GPI
# B2: tissue-type plasminogen activator (tPA) (enzyme, human, UniProt P00750 36-562, looked up)
# chain: SYQVICRDEKTQMIYQQHQSWLRPVLRSNRVEYCWCNSGRAQCHSVPVKSCSEPRCFNGGTCQQALYFSDFVCQCPEGFAGKCCEIDTRATCYEDQGISYRGTWSTAESGAECTNWNSSALAQKPYSGRRPDAIRLGLGNHNYCRNPDRDSKPWCYVFKAGKYSSEFCSTPACSEGNSDCYFGNGSAYRGTHSLTESGASCLPWNSMILIGKVYTAQNPSAQALGLGKHNYCRNPDGDAKPWCHVLKNRRLTWEYCDVPSCSTCGLRQYSQPQFRIKGGLFADIASHPWQAAIFAKHRRSPGERFLCGGILISSCWILSAAHCFQERFPPHHLTVILGRTYRVVPGEEEQKFEVEKYIVHKEFDDDTYDNDIALLQLKSDSSRCAQESSVVRTVCLPPADLQLPDWTECELSGYGKHEALSPFYSERLKEAHVRLYPSSRCTSQHLLNRTVTDNMLCAGDTRSGGPQANLHDACQGDSGGPLVCLNDGRMTLVGIISWGLGCGQKDVPGVYTKVTNYLDWIRDNMRP
# notes: Full-length recombinant tPA; also called Actilyse; Alteplase
# B3: abciximab (ReoPro) (Fab, V domains shown)
# VH: EVQLQQSGTVLARPGASVKMSCEASGYTFTNYWMHWVKQRPGQGLEWIGAIYPGNSDTSYIQKFKGKAKLTAVTSTTSVYMELSSLTNEDSAVYYCTLYDGYYVFAYWGQGTLVTVSA
# VL: EIVLTQSPVTLSVTPGDSVSLSCRASRDISNNLHWFQQTSHESPRLLIKYASQSMSGIPSRFSGSGSGTDFTLSINSVETEDFGMYFCQQTNSWPYTFGGGTKLEIK
# B4: endostatin (EntreMed) (other, UniProt P39060 1572-1754, looked up)
# chain: HSHRDFQPVLHLVALNSPLSGGMRGIRGADFQCFQQARAVGLAGTFRAFLSSRLQDLYSIVRRADRAAVPIVNLKDELLFPSWEALFSGSEGPLKPGARIFSFDGKDVLRHPTWPQKSVWHGSDPNGRRLTESYCETWRTEAPSATGQASSLLGGRLLGQSAASCHHAYIVLCIENSFMTASK
# notes: also called protein therapeutic endostatin
# Columns and labels:
# [1] = molecular target: B2; experiment: ELISA, tPA immobilized, β2GPI concentration series
# Method: (§1) Binding of β₂GPI was assessed with monoclonal antibody 2B2¹³.
# (§2) C. […] D. Western blot incubated with anti-human factor XII antibody. […] Eluted fractions are analyzed on Western blot after SDS-PA electrophoresis. […] The molecular mass of factor XII is 80 kDa. […] Anti-β₂GPI auto-antibodies were purified from plasma of patients with the auto-immune disease Anti-phospholipid syndrome. […] Signals are corrected for background fluorescence of CL, DXS, ThT and buffer.
# [2] = molecular target: T1, factor XII purified from human plasma (human, UniProt P00748 20-615); experiment: ELISA, factor XII immobilized, β2GPI concentration series
# T1 construct: mature; also called FXII
# T1 sequence (looked up): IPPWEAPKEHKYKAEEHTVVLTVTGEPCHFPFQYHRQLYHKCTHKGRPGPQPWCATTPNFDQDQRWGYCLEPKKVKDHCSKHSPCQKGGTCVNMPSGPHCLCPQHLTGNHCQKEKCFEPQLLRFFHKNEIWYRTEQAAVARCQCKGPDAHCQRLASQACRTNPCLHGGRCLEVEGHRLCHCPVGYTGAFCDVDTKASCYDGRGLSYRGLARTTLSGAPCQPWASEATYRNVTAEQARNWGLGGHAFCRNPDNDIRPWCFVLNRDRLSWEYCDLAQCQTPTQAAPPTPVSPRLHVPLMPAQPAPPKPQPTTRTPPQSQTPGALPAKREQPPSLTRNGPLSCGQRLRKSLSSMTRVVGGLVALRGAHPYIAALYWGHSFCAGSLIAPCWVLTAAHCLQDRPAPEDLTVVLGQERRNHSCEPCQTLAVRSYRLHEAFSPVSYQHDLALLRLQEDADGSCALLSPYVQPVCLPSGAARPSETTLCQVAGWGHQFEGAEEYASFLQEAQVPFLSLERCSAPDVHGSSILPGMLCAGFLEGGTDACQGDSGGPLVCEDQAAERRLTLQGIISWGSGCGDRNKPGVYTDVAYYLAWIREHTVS
# Method: as §1, §2
# [3] = molecular target: B2; experiment: ELISA, tPA coated, β2GPI concentration series, antibody 2B2
# Method: as §1, §2
# [4] = molecular target: T1, factor XII purified from human plasma; experiment: ELISA, factor XII coated, β2GPI concentration series, antibody 2B2
# Method: as §1, §2
# [5] = molecular target: T2, fibronectin F4-5 domains with carboxy-terminal His6-tag, expressed in S. cerevisiae (Fn F4-5-His6) (human, UniProt P02751 182-276); experiment: SPR (Biacore), Fn F4-5 on CM5 chip, concentration of ligand at half maximum binding
# T2 construct: range 182-276; also called Fn F4-5 doublet
# Method: (§3) Now, the running buffer was 10 mM HEPES pH 7.4, 140 mM NaCl, 1.5 mM CaCl₂, 10 mM εACA, 0.05% Tween-20. Regeneration buffer was running buffer supplemented with 1 M NaCl.
# [6] = molecular target: T3, advanced glycation end-product modified bovine serum albumin (albumin-AGE) (bovine, UniProt P02769 25-607, glycated (advanced glycation end-products; 1 M glucose-6-phosphate, 37 °C, up to 23 weeks); sites not stated); experiment: SPR (Biacore), immobilized tPA
# T3 construct: Misfolded, cross-β structure containing preparation; also called BSA-AGE; glycated BSA
# Method: EDC, NHS and ethanolamine hydrochloride were obtained from Biacore. […] The flow rate was 10 μl min.⁻¹, the injection time was 120″. The running buffer during immobilization was 10 mM HEPES pH 7.4, 140 mM NaCl. Buffers were filtrated on a 0.22 μm filter (white GSWP, 47 mm, Millipore) and degassed at room temperature. For subsequent binding experiments, the running buffer was 10 mM HEPES pH 7.4, 140 mM NaCl, 1.5 mM CaCl₂, 10 mM εACA, 0.005% Tween-20. […] After each injection of protein, the chip was regenerated with 0.1 M H₃PO₄ pH 1.0.
# abciximab (ReoPro) = molecular target: B3; experiment: ELISA, therapeutic coated, tPA concentration series, one-site binding fit
# Method: (§4) Nunc Immobilizer plates (Nalge Nunc, #436013, Rochester, N.Y., USA) were coated with 50 μL containing 5 μg/mL of sample protein (unless indicated otherwise) in 100 mM NaHCO₃, pH 9.6, 0.05% m/v NaN₃ for 1 hour at room temperature. Plates were washed twice with Tris buffered saline pH 7.2 containing 0.1% Tween20 (TBST) and blocked with PBS containing 1% Tween20 for 1 hour at room temperature. […] Plates were washed five times with TBST and incubated with peroxidase labeled anti-mouse immunoglobulins (RAMPO; DAKOCytomation, Glostrup, Denmark) diluted 1:3000 in PBST for 30 minutes at room temperature. Plates were washed five times with PBS 0.1% Tween20, and stained with 100 μL/well of tetramethyl-benzidine (TMB) substrate (Biosource Europe, Nivelles, Belgium). The reaction was terminated with 50 μL/well of 2 M H₂SO₄ and substrate conversion was read at 450 nm on a Spectramax340 microplate reader. Curves were fitted with a one-site binding model (GraphPad Prism version 4.02 for Windows, Graphpad Software, CA, USA) from which Kd and Bmax were determined.
# human albumin (Cealb) = molecular target: T4, human albumin (Cealb) (human, UniProt P02768 25-609); experiment: as above
# T4 construct: mature
# Method: as §4
# [7] = molecular target: T5, recombinant human Zn2+-chelated insulin (Monotard) (human, UniProt P01308 90-110; P01308 25-54); experiment: as above
# T5 construct: mature; Zinc suspension; also called zinc-insulin; zinc-chelated insulin
# Method: as §4
# [8] = molecular target: T6, rapid acting human insulin analogue (NovoRapid Flexpen) (human, UniProt P01308 90-110; P01308 25-54); experiment: as above
# T6 construct: mature; also called Insulin Aspart; Novo Rapid insulin
# Method: as §4
# endostatin (EntreMed) [9] = molecular target: B4; experiment: SPR (Biacore), tPA F immobilized on CM5 chip
# Method: as §3
# [10] = molecular target: B1; experiment: SPR (Biacore), tPA F immobilized on CM5 chip
# Method: as §3
# [11] = molecular target: B2; experiment: cell-based or functional assay
# [12] = molecular target: B2; experiment: ELISA, therapeutic coated, tPA concentration series, one-site binding fit
# Method: as §4
# endostatin (EntreMed) [13] = molecular target: B4; experiment: SPR (Biacore), HGFA F immobilized on CM5 chip
# Method: as §3
# [14] = molecular target: B1; experiment: SPR (Biacore), HGFA F immobilized on CM5 chip
# Method: as §3
# T2 sequence (P02751 other isoform, or with tags, fused parts or gaps limits assumed): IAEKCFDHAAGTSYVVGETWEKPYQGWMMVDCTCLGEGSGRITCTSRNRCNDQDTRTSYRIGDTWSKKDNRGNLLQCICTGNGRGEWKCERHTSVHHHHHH
# T3 sequence (P02769 25-607 limits assumed): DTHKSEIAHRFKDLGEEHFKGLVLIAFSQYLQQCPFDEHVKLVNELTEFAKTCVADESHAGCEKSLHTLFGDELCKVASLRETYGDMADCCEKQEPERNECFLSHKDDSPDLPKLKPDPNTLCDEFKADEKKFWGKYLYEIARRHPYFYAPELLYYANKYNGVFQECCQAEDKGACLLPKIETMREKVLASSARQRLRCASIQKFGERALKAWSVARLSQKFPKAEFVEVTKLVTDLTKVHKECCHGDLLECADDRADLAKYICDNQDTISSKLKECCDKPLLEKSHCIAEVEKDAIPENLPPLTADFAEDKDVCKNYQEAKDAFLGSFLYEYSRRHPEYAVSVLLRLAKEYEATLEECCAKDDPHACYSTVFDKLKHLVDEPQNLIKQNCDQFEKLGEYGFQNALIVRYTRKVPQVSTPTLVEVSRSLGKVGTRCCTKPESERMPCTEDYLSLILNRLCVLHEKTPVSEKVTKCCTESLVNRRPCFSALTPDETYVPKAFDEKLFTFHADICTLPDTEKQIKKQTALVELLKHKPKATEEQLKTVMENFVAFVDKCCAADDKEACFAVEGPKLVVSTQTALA
binder,measurement,setting,value
B1,Kd,[1],2.3 µg/mL
same,Kd,[2],0.9 µg/mL
same,Kd,[3],51 nM
same,Kd,[4],20 nM
same,EC50,[5],165 nM
B2,binding result,[6],binds
same,Bmax (OD450 nm),abciximab (ReoPro),0.533 OD450 nm
same,Bmax (OD450 nm),human albumin (Cealb),1.23 OD450 nm
same,Bmax (OD450 nm),[7],0.756 OD450 nm
same,Bmax (OD450 nm),[8],3.62 OD450 nm
"VICRDEKTQMIYQQHQSWLRPVLRSNRVEYCWCNSGRAQCHSVK (other, human, cysteine pairing not given here; also: added C-terminal Lys acetylated or biotinylated, domain: F domain; Immobilized on the second Biacore chip; also called tPA F domain) [chemically synthesized F domain of tPA (tPA F)]",binding result,endostatin (EntreMed) [9],no binding (tested: 0-800 nM)
same,binding result,[10],no binding (tested: 0-300 nM)
B3,"tPA activation, Max. Activation (%)",[11],0%
same,Kd,[12],216 nM
B4,EC50,[5],800 nM
"EKCFDETRYEYLEGGDRWARVRQGHVEQCECFGGRTWCEGTK (other, added carboxy-terminal lysine residue is acetylated, domain: F domain; Made by native chemical ligation of two peptides; also called HGFA F domain) [chemically synthesized F domain of hepatocyte growth factor activator (HGFA F)]",binding result,endostatin (EntreMed) [13],no binding (tested: 0-800 nM)
same,binding result,[14],no binding (tested: 0-300 nM)
